Measured values: the supplement of paper PMC6757056
± gives the standard deviation of the averaged measurements.

B1: library; a variant is named by its letters at N, in order (parent)
chain: GCUGUCACCGGUGCUUGGUACGUUAUAUUCAGCCGGUCUGAUGAGUCUNNNNNNAGACGAAACAGC

Tests used:
(6R,S)-folinic acid [1] = variants of: B1; assay: normalized RNA/DNA level without ligand (relative to sTRSVctl = 100) (log10 (% of sTRSVctl)); HEK293T overexpressing SLC46A1; higher = less ribozyme self-cleavage, higher mRNA level; settings: without (6R,S)-folinic acid; ligand present: no
Summary of the method: (§1)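 Library plasmids carrying ribozyme switches linked to mCherry, or to eGFP in some ligand experiments, were transfected into HEK293T at 4 µg per 6-well well, with any ligand added 1 h earlier. Seventy-two hours on, total RNA was extracted with EDTA and reverse-transcribed, amplified, barcoded and sequenced. RNA level was RNA over DNA reads normalized to a spiked-in non-cleaving sequence or to the top sequences, then scaled and log-transformed. The top set was 25 sequences, the transform was ×100 and log10, and sequences needed ≥100 DNA reads.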

(6R,S)-folinic acid [2] = variants of: B1; assay: normalized RNA/DNA level with ligand (relative to sTRSVctl = 100) (log10 (% of sTRSVctl)); HEK293T overexpressing SLC46A1; ligand concentration (+) RNA-Seq: 6 mM; higher = less ribozyme self-cleavage, higher mRNA level; settings: with (6R,S)-folinic acid; ligand present: yes
Summary of the method: as §1

Row | Variant | normalized RNA/DNA level without ligand (log10) ((6R,S)-folinic acid [1]) | normalized RNA/DNA level with ligand (log10) ((6R,S)-folinic acid [2])
1 | GCAGAA | 1.942 ± 0.0071 | 2.01 ± 0.044
2 | UCAGAA | 1.9353 ± 0.0018 | 2.017 ± 0.013
3 | CCAGAC | 1.99 ± 0.023 | 1.98 ± 0.051
4 | GCAGAC | 1.98 ± 0.037 | 2.02 ± 0.022
5 | UCAGAC | 2.046 ± 0.0027 | 1.997 ± 0.016
6 | CCAGAG | 1.909 ± 0.013 | 2.014 ± 0.019
7 | GCAGAG | 1.808 ± 0.01 | 2 ± 0.074
8 | UCAGAG | 1.75 ± 0.026 | 1.98 ± 0.0089
9 | CCAGCA | 2.01 ± 0.031 | 1.985 ± 0.0059
10 | GCAGCA | 2.048 ± 0.018 | 2.06 ± 0.037
11 | UCAGCA | 2.032 ± 0.016 | 2.062 ± 0.02
12 | GCAGCC | 2 ± 0.024 | 2.02 ± 0.025
13 | ACAGCC | 2.03 ± 0.0033 | 2.04 ± 0.045
14 | UCAGCC | 2.044 ± 0.0032 | 1.99 ± 0.039
15 | CCAGCG | 1.97 ± 0.025 | 1.99 ± 0.027
16 | CCAGCU | 2.087 ± 0.018 | 2.036 ± 0.013
17 | GCAGCU | 2.03 ± 0.029 | 2.02 ± 0.045
18 | ACAGCU | 2.06 ± 0.024 | 2.059 ± 0.004
19 | UCAGCU | 2.046 ± 0.011 | 2.032 ± 0.0099
20 | CCAGGA | 1.993 ± 0.00019 | 1.98 ± 0.036
21 | ACAGGA | 1.948 ± 0.011 | 2.03 ± 0.037
22 | CCAGGC | 2.094 ± 0.018 | 2.05 ± 0.026
23 | GCAGGC | 1.882 ± 0.0089 | 1.86 ± 0.042
24 | ACAGGC | 2.03 ± 0.021 | 2.01 ± 0.032

Row | Variant | normalized RNA/DNA level without ligand (log10) ((6R,S)-folinic acid [1]) | normalized RNA/DNA level with ligand (log10) ((6R,S)-folinic acid [2])
25 | UCAGGC | 2.031 ± 0.003 | 2.03 ± 0.057
26 | CCAGGG | 1.99 ± 0.021 | 2.038 ± 0.018
27 | CCAGGU | 2.026 ± 0.0082 | 2.05 ± 0.033
28 | GCAGGU | 1.934 ± 0.012 | 1.99 ± 0.03
29 | CCAGUA | 2.027 ± 0.0027 | 2.05 ± 0.044
30 | ACAGUA | 1.947 ± 0.0079 | 1.99 ± 0.043
31 | UCAGUA | 1.98 ± 0.021 | 2 ± 0.046
32 | CCAGUC | 2.06 ± 0.0079 | 2.0299 ± 0.00081
33 | GCAGUC | 2.046 ± 0.0028 | 2.05 ± 0.048
34 | ACAGUC | 2.0723 ± 0.0011 | 2.054 ± 0.0027
35 | GCAGUG | 1.9 ± 0.021 | 2.02 ± 0.038
36 | UCAGUG | 1.78 ± 0.018 | 1.972 ± 0.011
37 | CCAGUU | 2.019 ± 0.013 | 2.02 ± 0.05
38 | GCAGUU | 2.03 ± 0.0047 | 2.04 ± 0.053
39 | ACAGUU | 2 ± 0.012 | 2.01 ± 0.046
40 | UCAGUU | 2.008 ± 0.02 | 2 ± 0.049
41 | CCAUAA | 1.98 ± 0.023 | 1.97 ± 0.027
42 | CCAUAC | 1.991 ± 0.012 | 1.96 ± 0.059
43 | GCAUAC | 1.9845 ± 0.0011 | 2.03 ± 0.033
44 | UCAUAC | 2.029 ± 0.0064 | 1.988 ± 0.019
45 | CCAUAG | 1.922 ± 0.0071 | 1.99 ± 0.02
46 | ACAUAG | 1.935 ± 0.013 | 2.02 ± 0.021
47 | UCAUAG | 1.829 ± 0.0068 | 1.984 ± 0.015
48 | CCAUAU | 1.961 ± 0.0029 | 1.99 ± 0.032

Row | Variant | normalized RNA/DNA level without ligand (log10) ((6R,S)-folinic acid [1]) | normalized RNA/DNA level with ligand (log10) ((6R,S)-folinic acid [2])
49 | ACAUAU | 1.94 ± 0.037 | 2.01 ± 0.022
50 | UCAUAU | 1.952 ± 0.0097 | 1.98 ± 0.03
51 | CCAUCA | 2.026 ± 0.0086 | 2.02 ± 0.05
52 | GCAUCA | 2.023 ± 0.013 | 2.03 ± 0.022
53 | UCAUCA | 2.05 ± 0.039 | 2.03 ± 0.044
54 | CCAUCC | 2.094 ± 0.013 | 2.06 ± 0.021
55 | GCAUCC | 2.059 ± 0.0098 | 2.048 ± 0.0088
56 | UCAUCC | 2.07 ± 0.051 | 2.05 ± 0.041
57 | CCAUCG | 2.012 ± 0.01 | 2.017 ± 0.014
58 | GCAUCG | 2.01 ± 0.029 | 2.061 ± 0.011
59 | ACAUCG | 2.006 ± 0.014 | 2.07 ± 0.027
60 | UCAUCG | 1.997 ± 0.0043 | 2.01 ± 0.04
61 | CCAUCU | 2.071 ± 0.0041 | 2.07 ± 0.035
62 | GCAUCU | 2.054 ± 0.0071 | 2.04 ± 0.058
63 | ACAUCU | 2.024 ± 0.011 | 2.03 ± 0.037
64 | UCAUCU | 2.064 ± 0.0079 | 2.055 ± 0.0055
65 | CCAUGA | 1.981 ± 0.0035 | 2 ± 0.059
66 | ACAUGA | 1.979 ± 0.01 | 2.034 ± 0.019
67 | UCAUGA | 2.01 ± 0.028 | 2.053 ± 0.019
68 | CCAUGC | 2.054 ± 0.015 | 2.05 ± 0.04
69 | GCAUGC | 2.025 ± 0.0027 | 1.999 ± 0.0055
70 | ACAUGC | 2.014 ± 0.014 | 2.04 ± 0.07
71 | CCAUGG | 1.986 ± 0.013 | 2.016 ± 0.015
72 | GCAUGG | 1.944 ± 0.0075 | 2.04 ± 0.028

Row | Variant | normalized RNA/DNA level without ligand (log10) ((6R,S)-folinic acid [1]) | normalized RNA/DNA level with ligand (log10) ((6R,S)-folinic acid [2])
73 | UCAUGG | 1.947 ± 0.0059 | 2.03 ± 0.048
74 | GCAUGU | 1.983 ± 0.0026 | 2.02 ± 0.055
75 | ACAUGU | 2.022 ± 0.0056 | 2.02 ± 0.023
76 | UCAUGU | 1.942 ± 0.0042 | 2.01 ± 0.039
77 | CCAUUA | 1.9907 ± 0.00033 | 2 ± 0.023
78 | ACAUUA | 2.006 ± 0.017 | 2.02 ± 0.034
79 | UCAUUA | 2.003 ± 0.014 | 2.04 ± 0.023
80 | CCAUUC | 2.045 ± 0.02 | 2.03 ± 0.048
81 | GCAUUC | 2.03 ± 0.052 | 2.023 ± 0.0067
82 | ACAUUC | 2.072 ± 0.0067 | 2.027 ± 0.0058
83 | UCAUUC | 2.067 ± 0.013 | 2.07 ± 0.021
84 | CCAUUG | 1.97 ± 0.031 | 2.015 ± 0.0036
85 | GCAUUG | 1.952 ± 0.009 | 2.01 ± 0.011
86 | ACAUUG | 1.94 ± 0.032 | 2.024 ± 0.011
87 | CCAUUU | 2.012 ± 0.018 | 2.04 ± 0.036
88 | GCAUUU | 2.03 ± 0.0026 | 2.04 ± 0.04
89 | ACAUUU | 2 ± 0.024 | 2.019 ± 0.018
90 | UCAUUU | 2.021 ± 0.014 | 2.02 ± 0.047
91 | CCCAAA | 2.02 ± 0.025 | 2.026 ± 0.0099
92 | UCCAAA | 1.982 ± 0.0034 | 1.986 ± 0.015
93 | CCCAAC | 2.042 ± 0.017 | 2.019 ± 0.017
94 | GCCAAC | 2.033 ± 0.02 | 2.055 ± 0.011
95 | ACCAAC | 2.025 ± 0.012 | 2.02 ± 0.029
96 | UCCAAC | 2.067 ± 0.0087 | 2.06 ± 0.03

Row | Variant | normalized RNA/DNA level without ligand (log10) ((6R,S)-folinic acid [1]) | normalized RNA/DNA level with ligand (log10) ((6R,S)-folinic acid [2])
97 | CCCAAG | 1.935 ± 0.014 | 1.99 ± 0.031
98 | GCCAAG | 2.0227 ± 0.0017 | 2.04 ± 0.038
99 | ACCAAG | 2.0073 ± 0.00077 | 2.009 ± 0.014
100 | CCCAAU | 2.023 ± 0.015 | 2.03 ± 0.028
101 | GCCAAU | 2.001 ± 0.0032 | 2 ± 0.053
102 | ACCAAU | 1.955 ± 0.01 | 2.012 ± 0.0037
103 | UCCAAU | 1.953 ± 0.0052 | 1.96 ± 0.028
104 | CCCACA | 2.05 ± 0.027 | 2 ± 0.034
105 | GCCACA | 2.036 ± 0.0076 | 2.026 ± 0.018
106 | ACCACA | 2.021 ± 0.0096 | 2.01 ± 0.021
107 | UCCACA | 1.985 ± 0.0093 | 2 ± 0.046
108 | CCCACC | 2.022 ± 0.0044 | 1.99 ± 0.021
109 | GCCACC | 2.0387 ± 0.00018 | 2.01 ± 0.025
110 | ACCACC | 2.087 ± 0.0062 | 2.06 ± 0.04
111 | UCCACC | 2.018 ± 0.017 | 2.03 ± 0.022
112 | CCCACG | 2.014 ± 0.0016 | 2.03 ± 0.021
113 | GCCACG | 1.99 ± 0.04 | 2.03 ± 0.062
114 | ACCACG | 2.023 ± 0.0076 | 2.061 ± 0.003
115 | CCCACU | 2.103 ± 0.016 | 2.08 ± 0.062
116 | GCCACU | 2.022 ± 0.011 | 2.01 ± 0.029
